Data published in patent publication US20200030416A1 (CASE WESTERN RESERVE UNIVERSITY, published 2020).

Biological target: T1, integrin GPIIb-IIIa on ADP-activated human platelets (human, UniProt P08514 32-1039; P05106 27-788)
T1 construct: whole, on cells; no isolated integrin was tested; also called active platelet GPIIb-IIIa
Test: human platelets (low platelet concentration, ADP) incubated on coverslips coated with cRGD-modified biotinylated liposomes; anti-CD62P fluorescence microscopy
Procedure: LPC was obtained as described previously and incubated with the construct-coated coverslips for 1 hr in the absence or in presence of platelet agonist ADP, under gentle agitation. Post-incubation, the coverslips were gently washed with PBS to remove loosely-bound platelets from the construct-coated surface. […] These stained coverslips were mounted onto glass slides and the fluorescence of active platelets aggregated onto the coverslips was imaged using inverted fluorescence microscopy. […] Platelet aggregation was quantified as the percentage of coverslip surface area covered by platelet fluorescence. All statistical analysis was performed using ANOVA and significance was considered as p<0.05.

B1: cyclic RGD peptide cyclo-CNPRGDY(OEt)RC (cRGD), conjugated to DSPE-PEG and displayed on liposomes (peptide)
peptide: CNPRGDYRC
modifications: not fully specified; cyclised by a disulphide between the terminal cysteines; Y(OEt) = O-ethyl tyrosine; N-terminus conjugated to DSPE-PEG2000-COOH; many copies on a ~150 nm liposome
notes: Tested only as a multivalent decoration on liposomes (2.5 mol %); also called GBP
B1: binds.
